Assay results taken from US20070178460A1 (ECOLE POLYTECHNIQUE FEDERALE DE LAUSANNE, published 2007).

T1: ^187Ntrp-Sec62p (Saccharomyces cerevisiae, UniProt P21825 2-274)
T1 construct: whole, on cells; Expressed in yeast EGY48 from pRS315CUP1 under the PCUP1-promoter; not shown: 6x His tag at the N-terminus of Ntrp
T1 sequence: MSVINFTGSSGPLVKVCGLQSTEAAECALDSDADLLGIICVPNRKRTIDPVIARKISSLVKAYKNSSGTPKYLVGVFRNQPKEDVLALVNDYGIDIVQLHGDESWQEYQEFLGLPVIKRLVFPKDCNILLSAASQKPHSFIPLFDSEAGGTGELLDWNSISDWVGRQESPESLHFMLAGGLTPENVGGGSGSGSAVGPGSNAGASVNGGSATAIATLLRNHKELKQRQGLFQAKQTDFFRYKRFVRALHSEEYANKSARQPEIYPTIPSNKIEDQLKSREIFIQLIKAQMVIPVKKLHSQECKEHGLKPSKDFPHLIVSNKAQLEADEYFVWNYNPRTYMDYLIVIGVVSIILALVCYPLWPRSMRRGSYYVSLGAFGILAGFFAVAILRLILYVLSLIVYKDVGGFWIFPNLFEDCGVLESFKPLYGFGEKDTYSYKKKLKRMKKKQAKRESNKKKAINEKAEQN

T2: Sec63p-^44Ctrp (Saccharomyces cerevisiae, UniProt P14906 1-663)
T2 construct: whole, on cells; Expressed in yeast EGY48 from pRS316CUP1 under the PCUP1-promoter; also called Sec63p-Ctrp; SEC63-^44Ctrp; not shown: HA tag at the C terminus of Trp1p
T2 sequence: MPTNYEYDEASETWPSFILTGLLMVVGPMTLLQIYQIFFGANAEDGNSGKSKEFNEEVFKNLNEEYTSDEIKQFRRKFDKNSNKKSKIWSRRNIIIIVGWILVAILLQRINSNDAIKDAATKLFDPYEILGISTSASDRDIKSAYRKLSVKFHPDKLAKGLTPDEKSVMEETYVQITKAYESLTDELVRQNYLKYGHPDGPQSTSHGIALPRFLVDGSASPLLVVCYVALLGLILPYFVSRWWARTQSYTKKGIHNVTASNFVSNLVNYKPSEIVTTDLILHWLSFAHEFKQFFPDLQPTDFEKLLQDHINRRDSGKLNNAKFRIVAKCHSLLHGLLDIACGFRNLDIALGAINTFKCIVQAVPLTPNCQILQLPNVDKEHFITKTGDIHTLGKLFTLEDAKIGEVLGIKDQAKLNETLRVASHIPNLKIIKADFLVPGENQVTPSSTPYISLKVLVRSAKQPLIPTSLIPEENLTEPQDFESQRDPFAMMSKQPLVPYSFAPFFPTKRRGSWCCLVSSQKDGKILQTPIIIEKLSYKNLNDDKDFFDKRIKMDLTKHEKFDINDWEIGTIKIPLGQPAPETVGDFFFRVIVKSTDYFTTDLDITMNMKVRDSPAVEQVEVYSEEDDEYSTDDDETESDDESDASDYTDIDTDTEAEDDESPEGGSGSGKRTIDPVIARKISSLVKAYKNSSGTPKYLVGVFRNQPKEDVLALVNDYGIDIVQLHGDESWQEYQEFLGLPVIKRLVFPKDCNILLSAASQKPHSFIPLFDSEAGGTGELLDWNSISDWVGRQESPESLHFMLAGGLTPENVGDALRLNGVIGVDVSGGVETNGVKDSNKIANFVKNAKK

T3: Ste14p-^44Ctrp (Saccharomyces cerevisiae, UniProt P32584 1-239)
T3 construct: whole, on cells; Control fusion; Ctrp fused to the cytoplasmic site of Ste14p; also called Ste14p-Ctrp; STE14-^44Ctrp; not shown: HA tag at the C terminus of Trp1p
T3 sequence: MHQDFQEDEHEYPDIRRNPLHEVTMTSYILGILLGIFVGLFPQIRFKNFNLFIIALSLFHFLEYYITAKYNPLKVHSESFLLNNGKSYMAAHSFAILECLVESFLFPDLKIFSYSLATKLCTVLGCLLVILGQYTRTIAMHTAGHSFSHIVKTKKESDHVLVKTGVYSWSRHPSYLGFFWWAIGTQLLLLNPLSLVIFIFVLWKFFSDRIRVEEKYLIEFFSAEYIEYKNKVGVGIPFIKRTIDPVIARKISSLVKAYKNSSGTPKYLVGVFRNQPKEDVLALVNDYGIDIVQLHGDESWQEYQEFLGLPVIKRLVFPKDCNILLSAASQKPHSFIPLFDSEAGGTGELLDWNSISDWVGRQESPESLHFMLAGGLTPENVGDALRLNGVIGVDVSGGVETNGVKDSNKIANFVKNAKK


What was measured:
Assay in all cases: split-Trp growth complementation in trp1 yeast EGY48
^187Ntrp-Sec62p = molecular target: T1, ^187Ntrp-Sec62p
Text: (§1) To monitor the interaction between Sec62p and Sec63p, trp1 yeast strains expressing pairs of matching Nₜᵣₚ-Sec62p and Sec63p-Cₜᵣₚ fusion proteins were spotted on selective plates lacking tryptophan (FIG. 5). […] To verify that the observed complementation of tryptophan auxotrophy is a result of the interaction between the Sec62p and Sec63p moieties of the fusion proteins, we fused the C-terminal fragments of split-Trp⁴⁴ and split-Trp¹⁸⁷ to the cytoplasmic site of Ste14p (FIG. 4B). Ste14p is a membrane protein of the ER that is known to interact with neither Sec62p nor Sec63p (FIG. 4B) (cf. Wittke, S., Lewke, N., Muller, S., and Johnsson, N. (1999), Mol Biol Cell 10, 2519-2530). No growth on plates lacking tryptophan was observed when matching pairs of Sec62p and Ste14p fusion proteins were co-expressed at 23° C. or 30° C. for 10 days (FIG. 5). The cellular amount of Ste14p-⁴⁴Cₜᵣₚ is roughly 2-3 fold lower than the amount of Sec63p-⁴⁴Cₜᵣₚ as determined by western blotting (data not shown). Since this relatively small effect cannot account for the clear growth difference between the strains expressing either ⁴⁴Nₜᵣₚ-Sec62p/Sec63p-⁴⁴Cₜᵣₚ or ⁴⁴Nₜᵣₚ-Sec62p/Ste14p-⁴⁴Cₜᵣₚ, we conclude that the ⁴⁴Nₜᵣₚ-Sec62p/Sec63p-⁴⁴Cₜᵣₚ interaction signal is specific.

Sec63p-^44Ctrp = molecular target: T2, Sec63p-^44Ctrp
Text: as §1

Ste14p-^44Ctrp = molecular target: T3, Ste14p-^44Ctrp
Text: as §1

Row | binding result (^187Ntrp-Sec62p) | binding result (Sec63p-^44Ctrp) | binding result (Ste14p-^44Ctrp) | Binder
1 | no binding | – | – | Ste14p-^187Ctrp (other, Saccharomyces cerevisiae, whole, on cells; Control fusion; Ctrp fused to the cytoplasmic site of Ste14p; also called Ste14p-Ctrp; not shown: HA tag at the C terminus of Trp1p) MHQDFQEDEHEYPDIRRNPLHEVTMTSYILGILLGIFVGLFPQIRFKNFNLFIIALSLFHFLEYYITAKYNPLKVHSESFLLNNGKSYMAAHSFAILECLVESFLFPDLKIFSYSLATKLCTVLGCLLVILGQYTRTIAMHTAGHSFSHIVKTKKESDHVLVKTGVYSWSRHPSYLGFFWWAIGTQLLLLNPLSLVIFIFVLWKFFSDRIRVEEKYLIEFFSAEYIEYKNKVGVGIPFIDALRLNGVIGVDVSGGVETNGVKDSNKIANFVKNAKK
2 | – | binds | no binding | ^44Ntrp-Sec62p (other, Saccharomyces cerevisiae, whole, on cells; Expressed in yeast EGY48 from pRS315CUP1 under the PCUP1-promoter; Ntrp at the N terminus of Sec62p; not shown: 6x His tag at the N-terminus of Ntrp) MSVINFTCSSGPLVKVCGLQSTEAAECALDSDADLLGIICVPNRGGSGSGSAVGPGSNAGASVNGGSATAIATLLRNHKELKQRQGLFQAKQTDFFRYKRFVRALHSEEYANKSARQPEIYPTIPSNKIEDQLKSREIFIQLIKAQMVIPVKKLHSQECKEHGLKPSKDFPHLIVSNKAQLEADEYFVWNYNPRTYMDYLIVIGVVSIILALVCYPLWPRSMRRGSYYVSLGAFGILAGFFAVAILRLILYVLSLIVYKDVGGFWIFPNLFEDCGVLESFKPLYGFGEKDTYSYKKKLKRMKKKQAKRESNKKKAINEKAEQN
